Measurements from patent US5821118.

Columns and labels:
[1] = target: bovine brain farnesyl-protein transferase (bovine) (UniProt P29702)
[2] = target: human farnesyl-protein transferase, recombinant, expressed in E. coli from pRD516 with a C-terminal Glu-Glu-Phe epitope tag on the β subunit (human)

IC50 value (nM), inhibition of farnesylation of Ras protein [1] [nM]	IC50 value (nM), inhibition of farnesylation of Ras protein [2] [nM]	Substance
10	17	tetrapeptide CIFM (cysteinylisolleucinyl-phenylalaninyl-methionine)
100	100	tetrapeptide CVIM (cysteinylvalinyl-isolleucinyl-methionine)
20000	6200	tetrapeptide CVIL (cysteinylvalinyl-isolleucinyl-leucine)
